# Measurements reported in PMC3305377, “Insights into the structure and activity of prototype foamy virus RNase H”.
# B1: 24/40-mer DNA/RNA primer/template (DNA:RNA)
# RNA: CUAAUUCCGCUUUCCCCUCUCCUGGUGAUCCUUUCCAUCC
# DNA: ATCACCAGGAGAGGGGAAAGCGGA
# Molecular target: PFV PR-RT (protease-reverse transcriptase) (prototype foamy virus, UniProt P14350 1-751)
# Assay: fluorescence anisotropy; 10 mM EDTA, no Mg2+; 5 nM substrate; 50 mM Tris/HCl pH 8.0, 80 mM KCl, 10 mM EDTA, 0.5 mM DTT, 25 C
# Details: protein: recombinant; label: 5'-DY647 on RNA; 24 bp hybrid; RNA template overhangs 5' 5 nt and 3' 11 nt
binder,measurement,value
B1,Kd,9.1 ± 1.7 nM
